Test [1] has as its target T1, human CD134 (full-length, on cells) (human, UniProt P43489 29-277).
T1 sequence: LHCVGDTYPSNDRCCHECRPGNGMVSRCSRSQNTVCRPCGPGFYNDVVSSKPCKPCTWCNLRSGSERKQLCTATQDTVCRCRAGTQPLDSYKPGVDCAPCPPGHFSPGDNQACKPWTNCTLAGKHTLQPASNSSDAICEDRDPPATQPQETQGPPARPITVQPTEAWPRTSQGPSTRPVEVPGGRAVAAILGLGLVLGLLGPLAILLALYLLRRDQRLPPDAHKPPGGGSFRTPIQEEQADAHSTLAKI
Nature of the test: flow cytometry, PHA-stimulated human CD3+ T lymphocytes.

Test [2] concerns the target T1, human CD134 (full-length, on cells). Nature of the test: flow cytometry, stable CD134 293-F clone no. 23. On the procedure: (§1) Full-length human CD134 (SEQ ID NO. 1) was re-cloned in a pcDNA3.1-derived expression plasmid (see Example 11 (d) below). […] After extensive washing in PBS/BSA/NaN₃, cells were subsequently incubated with 1:200 diluted PE-conjugated goat anti-mouse IgG (Fcγ specific) antibodies (Jackson ImmunoResearch) or with 1:200 diluted PE-conjugated goat anti-human IgG (Fcγ specific) antibodies (Jackson ImmunoResearch) for 30 minutes at 4° C. After extensive washing in PBS/BSA/NaN₃, cells were fixed in 2% formaldehyde in PBS/BSA/NaN₃ for 30 minutes at 4° C. Binding of antibodies was measured using flow cytometry (FACSCalibur; BD Biosciences).
On the technique in general: Flow cytometry measures light scatter and fluorescence of single cells or particles in a stream.

Test [3] has the same target. Nature of the test: competition flow cytometry, stable CD134 293-F clone no. 5; competitor biotinylated mouse 12H3 at 700 ng/mL. How it is done: Full-length human CD134 (SEQ ID NO1) was re-cloned in a pcDNA3.1-derived expression plasmid (see Example 11 (c) above). […] After extensive washing in PBS/BSA/NaN₃, cells were fixed in 2% formaldehyde in PBS/BSA/NaN₃ for 30 minutes at 4° C.

For test [4] the target is unchanged. Nature of the test: cell-based or functional assay.
Test [5] concerns the target T2, recombinant human CD134:human Fcγ (IgG1) fusion protein (human, UniProt P01857-1 100-330 = IgG part, limits assumed).
T2 construct: domain: Fcγ (IgG1); Bought (R&D Systems); also called rhuCD134
Nature of the test: ELISA, plate-bound CD134:Fc 50 ng/well. On the procedure:
Ninety six-wells flat-bottom ELISA plates (Corning) were coated with 50 ng/well recombinant human CD134:human Fcγ (IgG1) fusion protein (R&D Systems) in PBS o/n at 4° C. After extensive washing in PBS/0.05% Tween 20, plates were blocked in PBS/0.05% Tween 20/1% BSA fraction V (Roche) for 1 hour at RT. […] After extensive washing in PBS/0.05% Tween 20, binding of antibodies was determined with 1:5000 diluted horseradish peroxidase-conjugated goat anti-mouse (Fcγ specific) antibodies (Jackson ImmunoResearch) or with 1:4000 diluted horseradish peroxidase-conjugated goat anti-human κ-specific antibodies (Southern Biotech) for 1 hour at RT, followed by a ready-to-use solution of TMB substrate (Invitrogen) for colorimetric detection. After adding 1 M H₂SO₄, optical densities were measured at, a wavelength of 450 nm (reference wavelength of 655 nm) using a microplate reader (BioRad).
On the technique in general: ELISA stands for enzyme-linked immunosorbent assay.

Test [6] addresses T3, truncated human CD134 'truncated (tc) CRD4' construct (human, UniProt P43489 147-277).
T3 construct: also called truncated CRD4
T3 sequence: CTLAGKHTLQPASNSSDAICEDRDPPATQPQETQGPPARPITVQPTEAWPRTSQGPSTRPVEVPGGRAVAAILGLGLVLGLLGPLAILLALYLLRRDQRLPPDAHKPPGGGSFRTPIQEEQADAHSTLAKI
Put plainly: flow cytometry, transiently transfected 293-F cells (parental 12H3: binding completely absent on tcCRD4). How it is done:
After 48-72 h, surface human CD134 expression on transfected cells was analyzed by FACS analysis. To this end, transfected cells were harvested and put at 1-2×10⁶ cells/mL in ice-chilled PBS/BSA/NaN₃. […] After extensive washing in PBS/BSA/NaN₃, cells were subsequently incubated with 1:200 diluted PE-conjugated goat anti-human IgG (Fcγ specific) antibodies (Jackson ImmunoResearch) for 30 minutes at 4° C. After extensive washing in PBS/BSA/NaN₃, cells were fixed in 2% formaldehyde in PBS/BSA/NaN₃ for 30 minutes at 4° C. Binding of antibodies was measured using flow cytometry (FACSCalibur; BD Biosciences).

Test [7] concerns the target T1, human CD134 (full-length, on cells). Put plainly: flow cytometry, stable CD134 293-F clone no. 5. On the procedure: as §1

Changes are numbered by the printed parent chain. Some results are limits rather than exact numbers.

T2 sequence (P01857 other isoform, or with tags, fused parts or gaps limits assumed): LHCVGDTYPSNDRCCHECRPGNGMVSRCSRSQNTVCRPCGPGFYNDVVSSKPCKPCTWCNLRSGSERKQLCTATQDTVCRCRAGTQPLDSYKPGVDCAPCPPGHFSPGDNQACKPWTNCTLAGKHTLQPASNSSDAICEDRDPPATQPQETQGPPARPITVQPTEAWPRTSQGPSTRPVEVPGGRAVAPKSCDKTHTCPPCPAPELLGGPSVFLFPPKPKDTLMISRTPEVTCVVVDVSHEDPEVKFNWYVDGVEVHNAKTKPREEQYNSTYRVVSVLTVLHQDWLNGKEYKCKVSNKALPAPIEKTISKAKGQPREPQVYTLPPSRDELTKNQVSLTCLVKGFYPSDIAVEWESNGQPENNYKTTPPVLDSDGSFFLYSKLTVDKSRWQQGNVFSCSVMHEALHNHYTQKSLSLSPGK

By EC50 is commonly meant the concentration giving half of the maximal effect. As for “commercially available mouse anti-human CD134 antibody clone ACT35”, in test [1], the EC50 was found to be 2.5 µg/mL and the saturating concentration is 5 µg/mL.

B1: mouse anti-human CD134 monoclonal antibody clone 20E5 (antibody, V domains shown)
VH: EVQLQQSGPELVKPGASVKMSCKASGYTFTSYVMHWVKQKPGQGLEWIGYINPYNDGTKYNEKFKGKATLTSDKSSSTAYMELSSLTSEDSAVYYCANYYGSSLSMDYWGQGTSVTVSS
VL: DIQMTQTTSSLSASLGDRVTISCRASQDISNYLNWYQQKPDGTVKLLIYYTSRLHSGVPSRFSGSGSGTDYSLTISNLEQEDIATYFCQQGNTLPWTFGGGTKLEIKR
notes: also called m20E5; parental mouse anti-human CD134 antibody clone 20E5
Consider B1, for which the concentration giving a half-maximal response (EC50) in test [1] was about 2.5 µg/mL.

B2: humanized IgG4κ anti-human CD134 antibody clone 12H3 version 12H3_VL1VH2 (antibody, V domains shown)
VH: QVQLVQSGAEVKKPGSSVKVSCKASGYTFKDYTMHWVRQAPGQGLEWIGGIYPNNGGSTYNQNFKDRVTLTADKSTSTAYMELSSLRSEDTAVYYCARMGYHGPHLDFDVWGQGTTVTVSS
VL: DIQMTQSPSSLSASVGDRVTITCKASQDVGAAVAWYQQKPGKAPKLLIYWASTRHTGVPSRFSGSGSGTDFTLTISSLQPEDFATYYCQQYINYPLTFGGGTKVEIKR
notes: Stabilized human IgG4/κ; end of each range computed; also called 12H3_VL1H2; 2H3 VL1VH2 (SF2)
By IC50 is commonly meant the concentration that inhibits the measured activity by half. Read a high IC50 as a need for much substance. On to B2, for which, in test [2], the concentration giving a half-maximal response (EC50) is under 0.2 µg/mL. Besides, the IC50 in test [3] was about 1.5 µg/mL. Further, in test [4], the “Replication Index, Treg/Teff ratio 0:1, donor 1” value is 13.9; the “Replication Index, Treg/Teff ratio 0:1, donor 2” value is 12.1; the “Replication Index, Treg/Teff ratio 0:1, donor 3” value came out at 10.2; the “Replication Index, Treg/Teff ratio 0:1, donor 4” value worked out at 10.7. For the same molecule, in test [4], the “Replication Index, Treg/Teff ratio 0:1, donor 5” value was determined as 8.66; the “Replication Index, Treg/Teff ratio 1:2, donor 1” value was determined as 5.33; the “Replication Index, Treg/Teff ratio 1:2, donor 2” value was 5.82; the “Replication Index, Treg/Teff ratio 1:2, donor 3” value came out at 6. In addition, in test [4], the “Replication Index, Treg/Teff ratio 1:2, donor 4” value was 6.05; the “Replication Index, Treg/Teff ratio 1:2, donor 5” value came out at 4.71; the “Replication Index, Treg/Teff ratio 1:4, donor 1” value came out at 5.23; the “Replication Index, Treg/Teff ratio 1:4, donor 2” value stood at 5.21. In test [4], the “Replication Index, Treg/Teff ratio 1:4, donor 3” value is 5.23; the “Replication Index, Treg/Teff ratio 1:4, donor 4” value was determined as 5.51; the “Replication Index, Treg/Teff ratio 1:4, donor 5” value was 4.81. For the same molecule, the EC50 in test [5] is about 0.05 µg/mL.

B3: humanized IgG4κ anti-human CD134 antibody clone 12H3 version 12H3_VL2VH2 (antibody, V domains shown)
VH: B2 VH
VL: B2 VL with S60D, S65G
notes: Stabilized human IgG4/κ; end of each range computed; also called 12H3_VL2H2
Regarding B3, the EC50 in test [2] is under 0.2 µg/mL; in test [5] it was about 0.05 µg/mL. In test [3], this molecule gave an IC50 of about 1.5 µg/mL.

B4: humanized IgG4κ anti-human CD134 antibody clone 12H3 version 12H3_VL1VH1 (antibody, V domains shown)
VH: B2 VH with I48M, L70I
VL: B2 VL
notes: Stabilized human IgG4 (Angal et al.)/κ; also called 12H3_VL1H1
On to B4, for which the EC50 in test [2] is under 0.2 µg/mL; in test [5], about 0.05 µg/mL. In test [3], the IC50 was about 1.5 µg/mL.

B5: humanized IgG4κ anti-human CD134 antibody clone 12H3 version 12H3_VL1VH3 (antibody, V domains shown)
VH: B2 VH with V68A, A72V
VL: B2 VL
notes: Stabilized human IgG4/κ; end of each range computed; also called 12H3_VL1H3
As for B5, the results for the EC50 in test [2] and in test [5] were under 0.2 µg/mL and about 0.05 µg/mL, respectively. Moreover, the IC50 in test [3] is about 1.5 µg/mL.

B6: humanized IgG4κ anti-human CD134 antibody clone 12H3 version 12H3_VL2VH3 (antibody, V domains shown)
VH: B2 VH with V68A, A72V
VL: B2 VL with S60D, S65G
notes: Stabilized human IgG4/κ; end of each range computed
Regarding B6, the concentration giving a half-maximal response (EC50) is under 0.2 µg/mL in test [2] and about 0.05 µg/mL in test [5]. In addition, the IC50 in test [3] was about 1.5 µg/mL.

B7: humanized IgG4κ anti-human CD134 antibody clone 12H3 version 12H3_VL2VH1 (antibody, V domains shown)
VH: B2 VH with I48M, L70I
VL: B2 VL with S60D, S65G
notes: Stabilized human IgG4/κ; end of each range computed; also called 12H3_VL2H1
As to B7, the EC50 is under 0.2 µg/mL in test [2] and about 0.05 µg/mL in test [5]. The IC50 in test [3] was about 1.5 µg/mL.

B8: chimeric human IgG1κ anti-human CD134 monoclonal antibody clone 12H3 (antibody, V domains shown)
VH: EVQLQQSGPELVKPGASVKISCKTSGYTFKDYTMHWVKQSHGKSLEWIGGIYPNNGGSTYNQNFKDKATLTVDKSSSTAYMEFRSLTSEDSAVYYCARMGYHGPHLDFDVWGAGTTVTVSP
VL: DIVMTQSHKFMSTSLGDRVSITCKASQDVGAAVAWYQQKPGQSPKLLIYWASTRHTGVPDRFTGGGSGTDFTLTISNVQSEDLTDYFCQQYINYPLTFGGGTKLEIKR
notes: Human IgG1/kappa constant regions
Regarding B8, in test [6], the binding result is “no binding (tested: 20.0 µg/mL)”.

B9: humanized IgG4κ anti-human CD134 antibody clone 20E5 version 20E5_VL1VH2 (antibody, V domains shown)
VH: QVQLVQSGAEVKKPGASVKVSCKASGYTFTSYVMHWVRQAPGQRLEWIGYINPYNDGTKYNEKFKGRATITSDTSASTAYMELSSLRSEDTAVYYCANYYGSSLSMDYWGQGTLVTVSS
VL: DIQMTQSPSSLSASVGDRVTITCRASQDISNYLNWYQQKPGKAPKLLIYYTSRLHSGVPSRFSGSGSGTDYTLTISSLQPEDFATYYCQQGNTLPWTFGQGTKVEIKR
notes: Stabilized human IgG4/κ; end of each range computed; also called 20E5_VL1H2; VL1H2
Turning to B9, the binding result in test [7] was “binds”. For the same molecule, the EC50 in test [5] is about 0.15 µg/mL.

B10: humanized IgG4κ anti-human CD134 antibody clone 20E5 version 20E5_VL2VH2 (antibody, V domains shown)
VH: B9 VH
VL: B9 VL with P44V, Y87F
notes: as for B6
For B10, the binding result in test [7] is “binds”. In test [5], the EC50 was about 0.1 µg/mL.

B11: humanized IgG4κ anti-human CD134 antibody clone 20E5 version 20E5_VL1VH3 (antibody, V domains shown)
VH: B9 VH with I70L, T74K
VL: B9 VL
notes: Stabilized human IgG4/κ; end of each range computed; also called 20E5_VL1H3; 2-E5_VL1VH3
Turning to B11, the binding result in test [7] was “binds”. Also, the EC50 in test [5] is about 0.1 µg/mL.

B12: humanized IgG4κ anti-human CD134 antibody clone 20E5 version 20E5_VL2VH1 (antibody, V domains shown)
VH: B9 VH with I48M, A68V
VL: B9 VL with P44V, Y87F
notes: Stabilized human IgG4/κ; end of each range computed; also called 20E5_VL2H1
Take B12: the binding result in test [7] is listed as “binds”. For the same molecule, in test [5], the EC50 is about 0.1 µg/mL.

B13: humanized IgG4κ anti-human CD134 antibody clone 20E5 version 20E5_VL2VH3 (antibody, V domains shown)
VH: B9 VH with I70L, T74K
VL: B9 VL with P44V, Y87F
notes: as for B6
In the case of B13, the binding result in test [7] was “binds”. The EC50 in test [5] was about 0.1 µg/mL.

(Values after patent US20140377284A1 (BIOCEROX PRODUCTS B V, published 2014).)
